For experiment [1], the target named is SARS-CoV-2 Spike protein (SARS-CoV-2, UniProt P0DTC2 16-1211). The experiment in a line: SPR, hmAb captured, SARS-CoV-2 Spike injected, 1:1 fit. In general terms: In SPR one partner is held on a chip, and binding of the other changes the refractive index at the surface.
Experiment [2] addresses T1, SARS-CoV-2 Omicron Spike protein (SARS-CoV-2 Omicron, UniProt P0DTC2 16-1213). The experiment in a line: BLI, mAb on anti-human Fc biosensors. In general terms: Biolayer interferometry detects binding as a change in optical thickness at a sensor tip.
The target of experiment [3] is T2, SARS-CoV-2 Spike protein (SARS-CoV-2, UniProt P0DTC2 16-1211). Description: SPR/BLI, method not told apart.
For the next experiment, the target named is T3, 229E Spike protein (HCoV-229E, UniProt P15423 16-1115).
T3 sequence: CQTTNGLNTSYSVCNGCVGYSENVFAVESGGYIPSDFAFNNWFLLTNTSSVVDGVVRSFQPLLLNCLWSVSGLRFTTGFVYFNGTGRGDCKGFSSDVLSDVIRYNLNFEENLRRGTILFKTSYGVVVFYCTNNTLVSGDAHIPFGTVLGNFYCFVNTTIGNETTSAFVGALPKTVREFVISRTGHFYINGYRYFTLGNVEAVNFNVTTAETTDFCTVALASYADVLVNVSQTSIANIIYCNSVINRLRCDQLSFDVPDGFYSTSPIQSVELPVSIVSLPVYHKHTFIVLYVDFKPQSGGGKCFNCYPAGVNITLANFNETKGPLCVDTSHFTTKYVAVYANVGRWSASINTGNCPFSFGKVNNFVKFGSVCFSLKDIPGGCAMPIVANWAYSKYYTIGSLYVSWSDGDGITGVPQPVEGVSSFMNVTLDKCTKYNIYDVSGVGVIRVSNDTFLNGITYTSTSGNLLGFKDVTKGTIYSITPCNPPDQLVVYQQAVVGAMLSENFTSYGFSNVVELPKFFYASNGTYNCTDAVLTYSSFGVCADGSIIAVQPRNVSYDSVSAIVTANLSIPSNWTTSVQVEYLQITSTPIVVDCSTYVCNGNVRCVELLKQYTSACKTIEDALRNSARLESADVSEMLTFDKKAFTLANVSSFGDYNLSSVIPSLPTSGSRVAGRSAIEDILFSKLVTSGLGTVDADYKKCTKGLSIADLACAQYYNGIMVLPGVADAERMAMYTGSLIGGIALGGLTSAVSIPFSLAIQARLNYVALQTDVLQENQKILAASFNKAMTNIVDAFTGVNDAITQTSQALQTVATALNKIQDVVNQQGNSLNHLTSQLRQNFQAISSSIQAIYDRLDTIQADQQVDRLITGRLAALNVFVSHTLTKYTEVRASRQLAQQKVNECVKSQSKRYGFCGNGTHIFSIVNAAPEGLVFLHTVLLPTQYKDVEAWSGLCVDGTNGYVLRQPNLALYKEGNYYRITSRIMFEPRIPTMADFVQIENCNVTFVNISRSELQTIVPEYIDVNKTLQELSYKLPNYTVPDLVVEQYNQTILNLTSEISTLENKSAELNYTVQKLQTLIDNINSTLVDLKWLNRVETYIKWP
Description: ELISA titration of 1249A8 on coated Spike proteins, mean Abs at 450 nm.

A further experiment has as its target T4, NL63 Spike protein (HCoV-NL63, UniProt Q6Q1S2 19-1296).
T4 sequence: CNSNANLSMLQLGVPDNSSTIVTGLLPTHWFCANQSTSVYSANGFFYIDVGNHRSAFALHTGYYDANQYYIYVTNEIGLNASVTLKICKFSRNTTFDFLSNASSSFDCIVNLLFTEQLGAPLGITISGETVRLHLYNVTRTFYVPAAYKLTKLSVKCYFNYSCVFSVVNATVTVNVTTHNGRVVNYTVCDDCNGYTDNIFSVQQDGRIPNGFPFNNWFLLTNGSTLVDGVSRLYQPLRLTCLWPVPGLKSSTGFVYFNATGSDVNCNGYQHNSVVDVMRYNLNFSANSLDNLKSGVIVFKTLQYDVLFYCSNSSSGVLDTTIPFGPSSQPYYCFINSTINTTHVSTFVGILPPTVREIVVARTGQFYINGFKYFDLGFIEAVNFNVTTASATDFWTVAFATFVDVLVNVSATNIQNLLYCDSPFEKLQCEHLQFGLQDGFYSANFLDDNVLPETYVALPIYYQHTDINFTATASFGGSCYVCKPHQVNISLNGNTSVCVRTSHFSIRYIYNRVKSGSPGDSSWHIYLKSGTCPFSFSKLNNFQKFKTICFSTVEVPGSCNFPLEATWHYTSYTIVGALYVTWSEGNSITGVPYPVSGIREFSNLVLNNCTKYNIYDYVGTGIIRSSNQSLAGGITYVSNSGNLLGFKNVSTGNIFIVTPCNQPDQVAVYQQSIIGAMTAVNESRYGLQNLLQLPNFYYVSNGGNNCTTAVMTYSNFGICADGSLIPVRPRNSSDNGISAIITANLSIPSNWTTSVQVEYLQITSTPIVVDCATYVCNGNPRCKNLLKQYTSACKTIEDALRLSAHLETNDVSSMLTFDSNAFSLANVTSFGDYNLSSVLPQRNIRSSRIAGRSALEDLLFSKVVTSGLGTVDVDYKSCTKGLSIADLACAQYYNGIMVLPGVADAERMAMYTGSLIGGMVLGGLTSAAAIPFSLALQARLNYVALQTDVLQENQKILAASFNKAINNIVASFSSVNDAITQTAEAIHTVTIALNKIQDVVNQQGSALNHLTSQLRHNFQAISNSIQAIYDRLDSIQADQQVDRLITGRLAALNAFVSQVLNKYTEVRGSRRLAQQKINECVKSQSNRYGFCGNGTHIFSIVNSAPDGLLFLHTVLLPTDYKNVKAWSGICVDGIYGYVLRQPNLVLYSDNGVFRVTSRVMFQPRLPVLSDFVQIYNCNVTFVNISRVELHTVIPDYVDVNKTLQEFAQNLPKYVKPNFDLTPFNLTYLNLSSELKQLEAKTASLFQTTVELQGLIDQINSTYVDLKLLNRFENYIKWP
The description is as above.

For experiment [4], the target named is T2, SARS-CoV-2 Spike protein. Description: BLI, mAb on anti-human Fc biosensor, SARS-CoV-2 Spike in solution.
In experiment [5] the target is T2, SARS-CoV-2 Spike protein.
Experiment [6] deals with T1, SARS-CoV-2 Omicron Spike protein.

Data on 4 molecules can be found in patent US20240270828A1 (UAB RESEARCH FOUNDATION, published 2024).

Like-named read-outs stand apart in the source and are kept apart here.

B1: CV3-25 (antibody, V domains shown)
VH: QVQLVESGAEVKKPGESLKISCKGSGYTFTRYWIGWVRQMPGKGLEWMGIIYPGDSDTRYSPSFQGHVTISADKSISTAYLQWNSLKASDTAMYYCARLPQYCSNGVCQRWFDPWGQGTLVTVSS
VL: EIVLTQSPSSVSASVGDRVTITCRASQGISSWLAWYQQKPGKAPKLLIYAASSLQSGVPSRFSGSGSGTDFTLTISSLQPEDFATYYCQQGNSFPYTFGQGTNLEIK
For B1, the Kd (in general, the equilibrium constant for the complex coming apart) with SARS-CoV-2 Spike protein [1] stood at 2.5 nM.

B2: 1249A8 (antibody, V domains shown)
VH: QVQLVQSGAEVKKPGASMKVSCKASGFTFTDYYMHWVRQAPRQGLEWMGLINPSGSGTAYAQNFQGRVTLARDTSTSTLYMEMGSLTSDDTAVYYCARMDSSGSYDHWGQGTLVTVSS
VL: ETTLTQSPGTLSLSPGDRATLSCRASQTIRISYLAWYQQKPGQAPRLLVYGPSIRATGIPDRFSARGSGTDFTLTISRLEPEDFAVYYCQHYGSSPPRYTFGQGTKLEIK
Regarding B2, the Kd is 0.52 nM in experiment [2]; 1.8 nM in the experiment with SARS-CoV-2 Spike protein [3]; 2.85 nM with SARS-CoV-2 Spike protein [4]; 1.22 nM with SARS-CoV-2 Spike protein [5]; 0.517 nM in experiment [6]. Moreover, the binding result in the experiment with 229E Spike protein and with NL63 Spike protein was “no binding (tested: about 1000 ng/ml)” throughout.

B3: S2P6 (antibody, V domains shown)
VH: EVQLVQSGAEVKKPGASVKVSCKASGYTFTSQYMHWVRQAPGQGLEWIGIINPSGVHTSYAQKFQGRVTLTRDTSTSTLYMELSSLRSEDTAVYYCARGSPKGAFDYWGQGTLVTVSS
VL: not shown
Molecule B3 gave a Kd with SARS-CoV-2 Spike protein [1] of 9.7 nM. That is a single-digit nanomolar value.

B4: CC40.8 (antibody, V domains shown)
VH: EVQLLESGGGLVQPGGSLRLSCAASGFTFSSYVMTWARQAPGKGLEWVSAISGTGYTYYADSVKGRFTVSRDNSKNTLFLQMSSLRAEDTAVYYCAITMAPVVWGQGTTVTVSS
VL: SYELTQPPSVSVSPGQTARITCSGDALPKRYAYWYQQKSGQAPILVIYEDKKRPSGIPERLSGSKSGTVATLTISGAQVEDEADYYCYSTDSSGNHAVFGGGTQLTVL
B4: the Kd in the experiment with SARS-CoV-2 Spike protein [1] was 1.6 nM.
